According to paper PMC13215203:

B1: untagged SPD-5 amino acids 135-473, phosphorylated by PLK1, P91349 S170A; T178A; T198A (protein)
chain: MQSRIETSEDNFARQMKEFEAQKHAMEERIKELELAATDANNTAVGSFRGTLDDILKKNDPDFALTSGYEERKINDLEAKLLSEIDKVAELEDHIQQLRQELDDQSARLADSENVRAQLEAATGQGILGAAGNAMVPNSTFMIGNGRESQTRDQLNYIDDLETKLADAKKENDKARQALVEYMNKCSKLEHEIRTMVKNSTFDSSSMLLGGQTSDELKIQIGKVNGELNVLRAENRELRIRCDQLTGGDGNLSISLGQSRLMAGIATNDVDSIGQGNETGGTSMRILPRESQLDDLEESKLPLMDTSSAVRNQQQFASMWEDFESVKDSLQNNHNDTLE
B2: untagged SPD-5 amino acids 135-473, phosphorylated by PLK1, P91349 S170A; T178A; T198A; T274A; T335A; S339A; S340A (protein)
chain: MQSRIETSEDNFARQMKEFEAQKHAMEERIKELELAATDANNTAVGSFRGTLDDILKKNDPDFALTSGYEERKINDLEAKLLSEIDKVAELEDHIQQLRQELDDQSARLADSENVRAQLEAATGQGILGAAGNAMVPNSAFMIGNGRESQTRDQLNYIDDLETKLADAKKENDKARQALVEYMNKCSKLEHEIRTMVKNSAFDSAAMLLGGQTSDELKIQIGKVNGELNVLRAENRELRIRCDQLTGGDGNLSISLGQSRLMAGIATNDVDSIGQGNETGGTSMRILPRESQLDDLEESKLPLMDTSSAVRNQQQFASMWEDFESVKDSLQNNHNDTLE
B3: untagged SPD-5 amino acids 135-473, phosphorylated by PLK1, P91349 T274A; T335A; S339A; S340A (protein)
chain: MQSRIETSEDNFARQMKEFEAQKHAMEERIKELELSATDANNTTVGSFRGTLDDILKKNDPDFTLTSGYEERKINDLEAKLLSEIDKVAELEDHIQQLRQELDDQSARLADSENVRAQLEAATGQGILGAAGNAMVPNSAFMIGNGRESQTRDQLNYIDDLETKLADAKKENDKARQALVEYMNKCSKLEHEIRTMVKNSAFDSAAMLLGGQTSDELKIQIGKVNGELNVLRAENRELRIRCDQLTGGDGNLSISLGQSRLMAGIATNDVDSIGQGNETGGTSMRILPRESQLDDLEESKLPLMDTSSAVRNQQQFASMWEDFESVKDSLQNNHNDTLE
B4: untagged SPD-5 amino acids 135-473, not phosphorylated, P91349 S170A; T178A; T198A; T274A; T335A; S339A; S340A (protein)
chain: MQSRIETSEDNFARQMKEFEAQKHAMEERIKELELAATDANNTAVGSFRGTLDDILKKNDPDFALTSGYEERKINDLEAKLLSEIDKVAELEDHIQQLRQELDDQSARLADSENVRAQLEAATGQGILGAAGNAMVPNSAFMIGNGRESQTRDQLNYIDDLETKLADAKKENDKARQALVEYMNKCSKLEHEIRTMVKNSAFDSAAMLLGGQTSDELKIQIGKVNGELNVLRAENRELRIRCDQLTGGDGNLSISLGQSRLMAGIATNDVDSIGQGNETGGTSMRILPRESQLDDLEESKLPLMDTSSAVRNQQQFASMWEDFESVKDSLQNNHNDTLE
B5: untagged SPD-5 amino acids 135-473, not phosphorylated, P91349 S170A; T178A; T198A (protein)
chain: MQSRIETSEDNFARQMKEFEAQKHAMEERIKELELAATDANNTAVGSFRGTLDDILKKNDPDFALTSGYEERKINDLEAKLLSEIDKVAELEDHIQQLRQELDDQSARLADSENVRAQLEAATGQGILGAAGNAMVPNSTFMIGNGRESQTRDQLNYIDDLETKLADAKKENDKARQALVEYMNKCSKLEHEIRTMVKNSTFDSSSMLLGGQTSDELKIQIGKVNGELNVLRAENRELRIRCDQLTGGDGNLSISLGQSRLMAGIATNDVDSIGQGNETGGTSMRILPRESQLDDLEESKLPLMDTSSAVRNQQQFASMWEDFESVKDSLQNNHNDTLE
B6: untagged SPD-5 amino acids 135-473, not phosphorylated, P91349 T274A; T335A; S339A; S340A (protein)
chain: MQSRIETSEDNFARQMKEFEAQKHAMEERIKELELSATDANNTTVGSFRGTLDDILKKNDPDFTLTSGYEERKINDLEAKLLSEIDKVAELEDHIQQLRQELDDQSARLADSENVRAQLEAATGQGILGAAGNAMVPNSAFMIGNGRESQTRDQLNYIDDLETKLADAKKENDKARQALVEYMNKCSKLEHEIRTMVKNSAFDSAAMLLGGQTSDELKIQIGKVNGELNVLRAENRELRIRCDQLTGGDGNLSISLGQSRLMAGIATNDVDSIGQGNETGGTSMRILPRESQLDDLEESKLPLMDTSSAVRNQQQFASMWEDFESVKDSLQNNHNDTLE

molecular target: reconstituted C. elegans γ-tubulin complex (γTuC): γ-tubulin^TBG-1, GCP2^GIP-2-5Myc, GCP3^GIP-1 and MZT-1, P34475;G5EF84; experiment: γTuC pull-down (γTuC-coated Myc beads), anti-SPD-5 immunoblot band intensity; details: chain shown with the change; +PLK1 preincubation (500 nM PLK1(T194D), 2.0 μM fragment, 1 hour at 23°C); binding 2 hours at 4°C, SPD-5 fragment 75 nM; scale: band intensity relative to SPD-5 135-473 without PLK1
Sequence (chain, as listed by the source, chain 1 of 4): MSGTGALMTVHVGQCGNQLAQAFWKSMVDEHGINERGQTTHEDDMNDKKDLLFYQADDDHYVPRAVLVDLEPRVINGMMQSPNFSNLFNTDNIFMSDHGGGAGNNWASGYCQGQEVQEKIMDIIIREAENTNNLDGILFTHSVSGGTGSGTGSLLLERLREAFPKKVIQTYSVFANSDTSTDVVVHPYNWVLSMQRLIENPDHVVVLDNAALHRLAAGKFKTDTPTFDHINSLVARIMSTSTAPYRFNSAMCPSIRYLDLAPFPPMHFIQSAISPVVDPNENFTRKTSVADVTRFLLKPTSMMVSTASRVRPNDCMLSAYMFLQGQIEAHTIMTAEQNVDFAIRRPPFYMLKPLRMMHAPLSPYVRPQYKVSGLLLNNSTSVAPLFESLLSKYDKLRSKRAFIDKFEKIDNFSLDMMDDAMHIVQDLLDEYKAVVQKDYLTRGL
Sequence (chain, as listed by the source, chain 2 of 4): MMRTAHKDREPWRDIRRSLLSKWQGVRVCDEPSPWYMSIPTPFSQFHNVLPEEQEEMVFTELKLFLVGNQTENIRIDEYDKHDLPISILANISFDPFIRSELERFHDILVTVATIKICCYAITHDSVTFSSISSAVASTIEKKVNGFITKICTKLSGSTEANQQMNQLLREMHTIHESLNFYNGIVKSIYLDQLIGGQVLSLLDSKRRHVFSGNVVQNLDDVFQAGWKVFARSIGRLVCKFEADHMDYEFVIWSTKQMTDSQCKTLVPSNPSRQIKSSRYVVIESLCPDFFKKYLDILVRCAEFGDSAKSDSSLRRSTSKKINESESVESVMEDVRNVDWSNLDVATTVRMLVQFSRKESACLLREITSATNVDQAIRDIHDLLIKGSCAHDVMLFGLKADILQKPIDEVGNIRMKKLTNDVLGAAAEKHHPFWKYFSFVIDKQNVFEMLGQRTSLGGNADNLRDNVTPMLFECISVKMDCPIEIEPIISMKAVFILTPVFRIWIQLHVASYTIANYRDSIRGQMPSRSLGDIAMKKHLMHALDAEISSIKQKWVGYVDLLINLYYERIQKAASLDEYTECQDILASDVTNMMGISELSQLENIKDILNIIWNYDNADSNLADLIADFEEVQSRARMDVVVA
Sequence (chain, as listed by the source, chain 3 of 4): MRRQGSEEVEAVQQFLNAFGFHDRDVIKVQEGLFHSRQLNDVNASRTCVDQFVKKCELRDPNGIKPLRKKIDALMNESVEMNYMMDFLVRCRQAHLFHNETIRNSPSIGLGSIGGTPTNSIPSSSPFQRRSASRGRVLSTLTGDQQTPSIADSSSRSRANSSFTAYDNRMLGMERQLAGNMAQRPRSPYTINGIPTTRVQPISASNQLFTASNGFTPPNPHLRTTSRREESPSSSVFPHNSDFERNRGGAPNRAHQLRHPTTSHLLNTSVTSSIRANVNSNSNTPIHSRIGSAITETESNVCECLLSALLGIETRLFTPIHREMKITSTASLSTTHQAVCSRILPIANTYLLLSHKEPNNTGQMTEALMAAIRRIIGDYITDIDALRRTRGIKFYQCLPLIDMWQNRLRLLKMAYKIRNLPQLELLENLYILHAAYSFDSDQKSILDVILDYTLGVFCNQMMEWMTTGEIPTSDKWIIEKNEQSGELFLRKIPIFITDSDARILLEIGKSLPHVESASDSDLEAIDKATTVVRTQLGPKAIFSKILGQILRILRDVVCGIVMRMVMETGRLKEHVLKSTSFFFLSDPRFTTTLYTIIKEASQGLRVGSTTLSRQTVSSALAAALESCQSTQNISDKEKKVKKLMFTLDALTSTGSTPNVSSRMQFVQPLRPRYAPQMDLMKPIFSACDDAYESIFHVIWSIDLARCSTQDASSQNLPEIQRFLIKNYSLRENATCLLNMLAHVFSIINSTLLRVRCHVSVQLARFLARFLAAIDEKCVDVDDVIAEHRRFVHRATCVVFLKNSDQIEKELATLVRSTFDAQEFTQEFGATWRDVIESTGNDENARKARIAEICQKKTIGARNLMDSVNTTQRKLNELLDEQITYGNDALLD
Sequence (chain, as listed by the source, chain 4 of 4): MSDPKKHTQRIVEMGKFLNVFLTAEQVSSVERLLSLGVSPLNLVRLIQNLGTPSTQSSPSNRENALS

Going from B1 to B2, the response falls from 0.1 to 0.

In the case of B3, the response is reported as 2.8.

same assay, conditions: chain shown with the change; no PLK1; binding 2 hours at 4°C, SPD-5 fragment 75 nM; scale: band intensity relative to SPD-5 135-473 without PLK1

First: B4
Second: B5
The response of the first is lower: 0.1 for the first, 0.7 for the second.

Work on B6 yielded a response of 0.1.
